Sequences and labels used below:
B1: Nb E2 (purified, C-terminal His6 tag) (VHH)
VHH: QVQLQESGGGLVQAGGSLRLSCATSGSIFSIISMGWYRQAPGKQRELVALVFRGGSTVYADSVKGRFTISGDIAKNTVYLQMDSLKPEDTAVYYCNVKSIGTAQYWGQGTQITVSS
notes: source: E. coli (pHEN6), purified; not shown: His6, C-terminal, kept
B2: Nb E4 (purified, C-terminal His6 tag) (VHH)
VHH: B1 VHH with Q13H, A14P, N76S, V97A, S99P, I112V
notes: as for B1
B3: Nb C3 (purified, C-terminal His6 tag) (VHH)
VHH: QVQLQESGGGLVQTGGSLRLSCAASGSTVSSSMMAWWRQTPGNQRELVALVASGNNTNYVDSVKGRFTVSRDNAKNTMYLQMNSLKPEDTAVYYCRILSVNGIWYWGQGTQVTVSS
notes: as for B1
B4: Nb C7 (purified, C-terminal His6 tag) (VHH)
VHH: QVQLQESGGGSVQAGESLTLSCTASGSSLSHKSVGWWRQTPGNQRELVALVASGNNTNYVDSVKGRFTVSRDNAKNTMYLQMNSLKPEDTAVYYCRILSVNGIWYWGQGTQVTVSS
notes: as for B1
B5: Nb L1 (HA-tagged, in periplasmic extract) (VHH)
VHH: VQAGGSLRLSCAASGYRYCRYDMSWYRQAPGKEREFVSAIDSYGSPTYADTVLGRFTISRDNAKNTVYLQMNSLKAEDTAMYYCKIDSTGWSSRCGKTYWGQGTQVTVSS
notes: source: E. coli WK6 (pHEN4), crude periplasmic extract
B6: Nb E2 (HA-tagged, in periplasmic extract) (VHH)
VHH: B1 VHH
notes: as for B5
B7: Nb E6 (HA-tagged, in periplasmic extract) (VHH)
VHH: B1 VHH with N76S, V97A, S99P, I112V
notes: as for B5
B8: Nb E5 (HA-tagged, in periplasmic extract) (VHH)
VHH: B1 VHH with A14P, N76S, V97A, S99P, I112V
notes: as for B5
B9: Nb C4 (HA-tagged, in periplasmic extract) (VHH)
VHH: QVQLQESGGGLVQPGGSLRLSCAASGSTVSSSMMAWWRQTPGNQRELVALVASGNNTNYVDSVKGRFTVSRDNAKNTMYLQMNGLKPEDTAVYYCRLSVNGIWYWGQGTQVTVSS
notes: as for B5
B10: Nb C1 (HA-tagged, in periplasmic extract) (VHH)
VHH: B3 VHH with S53R
notes: as for B5
B11: Nb C3 (HA-tagged, in periplasmic extract) (VHH)
VHH: B3 VHH
notes: as for B5
B12: Nb M1 (HA-tagged, in periplasmic extract) (VHH)
VHH: VQAGDSLRLACTLFKYPTNNLCLAWFRQAPGKEREGVAALNTDGVGTYYAKSVEGRFTISQDKSKNEGYLQMDNLKPEDTAIYYCAADPTSRCNNYVQGRWWHEIGSRVWDWGQGTQVTVSS
notes: as for B5
B13: Nb G1 (HA-tagged, in periplasmic extract) (VHH)
VHH: QVQLQESGGGLVQPGGSLRLSCAASGSISSFNFMGWYRQAPGKQRELVALSTNSGVTNVAGSVKGRFTISRDNAKTTVYLQMNSLKPEDTAVYYCRVGAMGNLYWGQGTQVTVSS
notes: as for B5
B14: Nb G4 (HA-tagged, in periplasmic extract) (VHH)
VHH: B13 VHH with P14A
notes: as for B5
B15: Nb G2 (HA-tagged, in periplasmic extract) (VHH)
VHH: B13 VHH with A23V
notes: as for B5
B16: Nb G3 (HA-tagged, in periplasmic extract) (VHH)
VHH: B13 VHH with P14T
notes: as for B5
B17: Nb I1 (HA-tagged, in periplasmic extract) (VHH)
VHH: QVQLQESGGGLVQAGGSLRLSCAASGRTFRRYDMGWFRQAPGKEREFVAASTWSADDTYYAGSVKGRFTISRDNAKNTVYLQMNSLKPEDTAVYYCAAGETRKYGFRTTEGYYDSWGQGTQVTVSS
notes: as for B5
B18: Nb G5 (HA-tagged, in periplasmic extract) (VHH)
VHH: QVQLQESGGGLVQPGGSLRLSCAASGSFFRTYIVSWYRQAPGKRREAVAVMSNSGNTNYADSVKGRFTISRDNAVNTVYLQMNSLKPEDTAVYYCNLLKVTVPPANYWGQGTQVTVSS
notes: as for B5
B19: Nb G6 (HA-tagged, in periplasmic extract) (VHH)
VHH: B18 VHH with G16E, A23V
notes: as for B5
B20: Nb G7 (HA-tagged, in periplasmic extract) (VHH)
VHH: B18 VHH with P14S
notes: as for B5
B21: Nb E4 (VHH)
VHH: B1 VHH with Q13H, A14P, N76S, V97A, S99P, I112V
notes: Nanobody from a dromedary immunised with RAW264.7 cells; recloned into pHEN6 for the C-terminal His6 tag; also called anti-PD-L1 Nb E4; source: E. coli fermentation cultures, purified; not shown: His6, C-terminal, kept
B22: Nb E2 (VHH)
VHH: B1 VHH
notes: Nanobody from a dromedary immunised with RAW264.7 cells; recloned into pHEN6 for the C-terminal His6 tag; also called anti-PD-L1 Nb E2; source: E. coli fermentation cultures, purified; not shown: His6, C-terminal, kept
B23: Nb C3 (VHH)
VHH: B3 VHH
notes: Nanobody from a dromedary immunised with RAW264.7 cells; recloned into pHEN6 for the C-terminal His6 tag; also called anti-PD-L1 Nb C3; source: E. coli fermentation cultures, purified; not shown: His6, C-terminal, kept
B24: Nb C7 (VHH)
VHH: B4 VHH
notes: Nanobody from a dromedary immunised with RAW264.7 cells; recloned into pHEN6 for the C-terminal His6 tag; also called anti-PD-L1 Nb C7; source: E. coli fermentation cultures, purified; not shown: His6, C-terminal, kept
B25: H1 (VHH)
VHH: QVQLQESGGGLVQAGGSLRLSCAASGRTFSSRGMGWFRQAPGKEREFVAAISWGGGTTYYADSVKGRFTISRDNAKNTVYLQMNSLKPEDTAVYYCAAHTGFPHEYDYWGQGTQVTVSS
B26: F1 (VHH)
VHH: QVQLQESGGGLVQAGGSLRLSCTASRTTSSINIMAWYRQAPGKRRELVALSIRGGNTHYADSVKGRFTISGVHANNTVYLQMNSLKPEDTAVYYCNTGGYWGQGTQVTVSS

Residue numbers refer to the chain shown, from its start.

In general, Kd refers to the equilibrium constant for the complex coming apart.

T2 sequence (Q9EP73 19-239): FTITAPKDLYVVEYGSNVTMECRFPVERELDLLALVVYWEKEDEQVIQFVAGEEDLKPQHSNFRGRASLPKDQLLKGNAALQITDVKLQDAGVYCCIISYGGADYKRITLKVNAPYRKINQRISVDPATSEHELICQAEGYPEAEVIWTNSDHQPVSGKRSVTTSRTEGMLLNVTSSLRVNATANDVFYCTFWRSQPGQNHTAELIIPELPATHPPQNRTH

The first assay deals with T1, His-tagged recombinant human PD-L1 protein (Sino Biological #10084-H08H) (Homo sapiens, UniProt Q9NZQ7).
T1 construct: programmed death-ligand 1 (PD-L1, B7-H1, CD274), human; also called huPD-L1; source: bought: Sino Biological (#10084-H08H)
T1 sequence (Q9NZQ7 19-238): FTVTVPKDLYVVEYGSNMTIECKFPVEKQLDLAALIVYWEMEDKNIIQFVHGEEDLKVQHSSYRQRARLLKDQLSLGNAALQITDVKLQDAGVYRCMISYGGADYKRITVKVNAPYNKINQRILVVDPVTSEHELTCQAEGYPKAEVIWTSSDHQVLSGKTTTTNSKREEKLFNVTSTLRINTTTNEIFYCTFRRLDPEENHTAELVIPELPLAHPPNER
Description: SPR; Biacore T200, 25°C, HBS (0.01 M HEPES pH 7.4, 0.15 M NaCl, 3 mM EDTA, 0.005% Tween 20); His-tagged recombinant human PD-L1 amine-coupled on a CM5 chip (650-900 RU); purified Nb as analyte, 9 dilutions (0.15-1000 nM), 120 s association, 160 s dissociation; 1-to-1 fit; n = 1. The settings on record: both partners purified. A general note: In SPR one partner is held on a chip, and binding of the other changes the refractive index at the surface.
On to B1, for which the Kd was 55.1 nM. In the case of B2, the Kd turned out to be 46.1 nM. In the case of B3, the Kd was determined as 170 nM.

As for B4, the Kd worked out at 74.5 nM.

Another assay has as its target T2, Mouse PD-L1 Fc-fusion protein (R&D Systems, 1019-B7) (Mus musculus, UniProt Q9EP73).
T2 construct: programmed death-ligand 1 (PD-L1, B7-H1, CD274), mouse; also called moPD-L1; B7-H1; source: bought: R&D Systems (1019-B7)
Briefly: SPR; Biacore T200, 25°C, HBS (0.01 M HEPES pH 7.4, 0.15 M NaCl, 3 mM EDTA, 0.005% Tween 20); mouse or human PD-L1 Fc-fusion protein amine-coupled on a CM5 chip (650-900 RU); Nb in crude periplasmic extract as analyte, its concentration estimated by CFCA; 9 dilutions, 120 s association, 160 s dissociation; 1-to-1 fit; affinity estimations. The settings on record: one partner purified.
For B5, the Kd was 15 nM. Same read-out and setting: the figure for B6 is 5.6 nM; for B7 it is 6.9 nM; for B8 it is 14 nM. Still for that read-out and setting: under B9 stands 0.187 nM. As to B10, the Kd was 0.327 nM. Take B11: the Kd was 0.14 nM. Same read-out and setting: under B12 stands 13 nM; under B13, 4.4 nM; under B14, 6.2 nM.

As to B15, the Kd was 5.5 nM. On the same count and under the same terms, under B16 stands 5 nM; under B17, 67 nM. The same measure, in the same setting: the figure for B18 is 3.9 nM; for B19 it is 5 nM. The same measure, in the same setting: under B20 stands 3.4 nM.

Another assay deals with T3, Human PD-L1 Fc-fusion protein (R&D Systems, 156-B7) (Homo sapiens, UniProt Q9NZQ7).
T3 construct: programmed death-ligand 1 (PD-L1, B7-H1, CD274), human; also called huPD-L1; B7-H1; source: bought: R&D Systems (156-B7)
T3 sequence (Q9NZQ7 19-238): as above
The assay is described as above. The settings on record: one partner purified.
Consider B5, for which the dissociation constant (Kd) is 34 nM. On to B6, for which the Kd was 94 nM.

Consider B7, for which the Kd was 217 nM. Still for that read-out and setting: under B8 stands 54 nM; under B9, 342 nM. As to B10, the Kd is 143 nM. Still for that read-out and setting: the figure for B11 is 32 nM; for B12 it is 17 nM; for B13 it is 50 nM. Consider B14, for which the Kd is 74 nM. The same measure, in the same setting: under B15 stands 158 nM; under B16, 907 nM; under B17, 322 nM. On the same count and under the same terms, under B18 stands 16 nM. With B19, the Kd was 21 nM.

As to B20, the Kd is 129 nM.

The target of another assay is T4, His-tagged recombinant mouse PD-L1 protein (Mus musculus, UniProt Q9EP73).
T4 construct: programmed death-ligand 1 (PD-L1, B7-H1, CD274), mouse; also called programmed death-ligand 1; B7-H1; source: bought: Sino Biological #50010-M08H
T4 sequence (Q9EP73 19-239): as the sequence (Q9EP73 19-239) above
Description: SPR; His-tagged mouse or human PD-L1 immobilised on a CM5 chip (EDC/NHS, between 650 and 900 RU); purified Nbs, 9 dilutions, 120 sec binding, 160 sec dissociation; Biacore T200, 25°C, HBS (0.01 M HEPES pH 7.4, 0.15 M NaCl, 3 mM EDTA, 0.005% Tween 20); 1-to-1 fit; n = 1. The settings on record: both partners purified.
B21: the Kd worked out at 4 nM. Same read-out and setting: the figure for B22 is 2.1 nM; for B23 it is 0.5 nM. For B24, the Kd was 17 nM.

Another assay deals with T4, His-tagged recombinant mouse PD-L1 ….
Experiment: not given
Conditions: not given
For B25, the binding result is on record as “binds”. The same measure, in the same setting: under B26 stands “binds”.

Source of the values: article PMC5522039, “Non-invasive assessment of murine PD-L1 levels in syngeneic tumor models by nuclear imaging with nanobody tracers” (Oncotarget, 2017).
